Reference: patent publication US20220242962A1 (APTEVO RESEARCH AND DEVELOPMENT, published 2022)
Positions count from the first letter of the chain named. In names and notes the source's numbering stands. One block for each binder: values may come before it.

Assays:
[1] = molecular target: T1, Fc gamma receptor RIIA R167 (human, UniProt P12318 36-218); experiment: SPR, Fc captured, receptor as analyte
T1 construct: soluble SPR analyte
T1 sequence (looked up): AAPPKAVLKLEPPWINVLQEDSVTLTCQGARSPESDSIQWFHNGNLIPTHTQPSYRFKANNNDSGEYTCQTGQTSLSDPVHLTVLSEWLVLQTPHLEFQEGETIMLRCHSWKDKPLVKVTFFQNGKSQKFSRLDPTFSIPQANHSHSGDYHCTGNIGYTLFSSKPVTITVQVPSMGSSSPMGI
Procedure: (§1) Fc mutations to be potentially integrated into an ADAPTIR™ bispecific construct were analyzed for binding to the common Fc receptors (human and cyno) and C1Q, which is a component of the complement activation system. SPR experiments were conducted at 25° C. in HBS-EP+ buffer on a Biacore T200 system.
(§2) For these experiments, all four flow cells of a CM5 sensor chip were immobilized with goat F(ab′)2 anti-human Fc (Jackson ImmunoResearch) to a response level of ˜4000 RU. Fc variants and wild type Fc were diluted to 100 nM in HBS-EP+ and captured on the surface of the chip for 120 seconds at a flow rate of 10 μL/min. Fcγ receptors (human and cyno, all purchased from R&D Systems) and complement (C1Q, purchased from Quidel Corporation and Complement Technology, Inc) were diluted in HBS-EP+ and then flowed as analytes at 30 μL/min for 120 seconds followed by a 120 seconds dissociation. Regeneration was achieved by flowing 10 mM glycine pH 1.7 at 30 μL/min for 30 seconds followed by a 60 seconds stabilization. Flow cell 1 was always left as a blank (no captured protein) for purposes of background signal subtraction. Blank-subtracted sensorgrams for each captured Fc variant were inspected for the presence of binding to any of the Fcγ receptor proteins or complement. There are polymorphisms in the Human Fc receptors IIA and RIIIA, so both sequences were tested for binding.

[2] = molecular target: T2, Fc gamma receptor RIIA H167 (human, UniProt P12318 36-218); experiment: SPR, Fc captured, receptor as analyte
T2 construct: soluble SPR analyte
T2 sequence (looked up): T1 sequence (looked up) with R132H
Procedure: as §1, §2

[3] = molecular target: T3, Fc gamma receptor RIIB/C (human, UniProt P31994 46-217); experiment: SPR, Fc captured, receptor as analyte
T3 construct: soluble SPR analyte
T3 sequence (looked up): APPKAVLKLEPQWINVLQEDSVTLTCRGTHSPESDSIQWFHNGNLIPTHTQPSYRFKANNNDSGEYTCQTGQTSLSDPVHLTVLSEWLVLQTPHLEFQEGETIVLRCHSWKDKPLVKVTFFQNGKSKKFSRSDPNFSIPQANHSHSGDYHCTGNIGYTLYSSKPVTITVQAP
Procedure: as §1, §2

[4] = molecular target: T4, Fc gamma receptor RIIIB (human, UniProt O75015 17-200); experiment: SPR, Fc captured, receptor as analyte
T4 construct: soluble SPR analyte
T4 sequence (O75015 17-200): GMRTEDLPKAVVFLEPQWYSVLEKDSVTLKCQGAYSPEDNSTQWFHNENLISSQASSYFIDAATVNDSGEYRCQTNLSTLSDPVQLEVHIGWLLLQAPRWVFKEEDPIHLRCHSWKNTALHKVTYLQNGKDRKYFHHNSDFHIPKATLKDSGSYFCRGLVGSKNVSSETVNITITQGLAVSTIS
Procedure: as §1, §2

[5] = molecular target: T5, Cyno RI (cynomolgus monkey, UniProt Q8SPW5 16-292); experiment: SPR, Fc captured, receptor as analyte
T5 construct: also called cyno RI receptor
T5 sequence (Q8SPW5 entry or part of it limits assumed): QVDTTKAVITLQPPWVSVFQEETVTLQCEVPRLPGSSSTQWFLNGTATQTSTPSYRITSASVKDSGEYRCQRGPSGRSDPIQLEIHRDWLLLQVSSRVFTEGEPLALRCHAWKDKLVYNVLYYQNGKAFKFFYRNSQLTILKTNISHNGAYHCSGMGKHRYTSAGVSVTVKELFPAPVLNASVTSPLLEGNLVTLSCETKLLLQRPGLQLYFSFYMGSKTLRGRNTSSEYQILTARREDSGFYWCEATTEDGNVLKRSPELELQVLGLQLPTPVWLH
Procedure: as §2

[6] = molecular target: T6, Cyno RIII (cynomolgus monkey, UniProt Q8SPW2 17-208); experiment: SPR, Fc captured, receptor as analyte
T6 construct: extracellular domain
T6 sequence (Q8SPW2 17-208): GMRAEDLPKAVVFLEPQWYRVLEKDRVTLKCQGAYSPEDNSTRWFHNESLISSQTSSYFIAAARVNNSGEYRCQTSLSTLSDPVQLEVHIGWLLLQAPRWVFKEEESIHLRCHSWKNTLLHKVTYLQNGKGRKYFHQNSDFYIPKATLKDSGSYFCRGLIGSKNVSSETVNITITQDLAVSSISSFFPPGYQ
Procedure: as §2

[7] = molecular target: T7, Full-length Human OX40 (human, UniProt P43489 29-277); experiment: flow cytometry, CHO cells expressing human OX40
T7 construct: also called OXF001; human OX40/CHO
T7 sequence: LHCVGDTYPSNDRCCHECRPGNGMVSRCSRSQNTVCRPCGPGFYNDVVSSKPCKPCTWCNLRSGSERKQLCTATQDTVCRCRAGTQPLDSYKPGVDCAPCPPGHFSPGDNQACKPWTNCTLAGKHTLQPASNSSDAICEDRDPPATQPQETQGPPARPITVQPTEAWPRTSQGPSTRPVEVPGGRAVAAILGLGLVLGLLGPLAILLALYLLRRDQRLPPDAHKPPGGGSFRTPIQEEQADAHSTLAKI

[8] = molecular target: T8, Full-length Human 4-1BB (human, UniProt Q07011 24-255); experiment: flow cytometry, Jurkat cells expressing human 4-1BB
T8 construct: also called FOB005; CD137
T8 sequence (Q07011 24-255): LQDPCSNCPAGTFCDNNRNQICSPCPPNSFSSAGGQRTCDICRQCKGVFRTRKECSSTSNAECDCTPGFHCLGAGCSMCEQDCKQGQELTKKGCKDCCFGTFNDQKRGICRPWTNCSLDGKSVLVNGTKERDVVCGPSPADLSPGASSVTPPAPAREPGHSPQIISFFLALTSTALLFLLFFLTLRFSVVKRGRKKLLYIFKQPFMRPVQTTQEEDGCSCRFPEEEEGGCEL
Procedure: Serial dilutions of ADAPTIR™ constructs were incubated with cells transfected with human or cynomolgus ECD and subsequently labelled with a fluorescently-conjugated goat-α-human Fc secondary antibody. […] (See Example 16.)

[9] = molecular target: T9, Human OX40 ECD-AFH (human); experiment: SPR (T200), construct captured, monomeric ECD as analyte
T9 construct: ECD'; entry includes the C-terminal tags; also called OXF003; Human OX40 ECD-avi-flag-his
T9 chain: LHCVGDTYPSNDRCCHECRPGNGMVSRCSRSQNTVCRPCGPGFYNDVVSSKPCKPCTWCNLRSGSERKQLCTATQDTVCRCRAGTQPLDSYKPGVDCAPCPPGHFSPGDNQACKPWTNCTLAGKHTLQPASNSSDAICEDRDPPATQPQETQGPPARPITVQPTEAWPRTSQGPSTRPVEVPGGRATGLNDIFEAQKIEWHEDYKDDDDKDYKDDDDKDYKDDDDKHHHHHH
Procedure: Mouse anti-human IgG (GE, BR-1008-39) at 25 μg/ml in 10 mM sodium acetate pH 5.0 was immobilized at a density of ˜10,000 response units (RU) onto each flow cell of a CM5 research-grade sensor chip (GE) by standard amine coupling chemistry. Each binding protein at approximately 100 nM in HBS-EP+ with 0.2% BSA buffer was captured in a flow cell with the immobilized anti-human IgG at a flow rate of 10 μL/min for 20 seconds, leaving one flow cell surface unmodified as the reference. Using a single-cycle kinetics mode, five different concentrations of ECD were sequentially injected through each flow cell at 30 μL/min for 300 seconds followed by a 600 second dissociation period. Regeneration was achieved by injection of 3 M MgCl₂ at a flow rate of 30 μL/min for 30 seconds followed by HBS-EP+ with 0.2% BSA buffer stabilization for 1 min.
Sensorgrams obtained from kinetic SPR measurements were analyzed by the double subtraction method. The signal from the reference flow cell was subtracted from the analyte binding response obtained from flow cells with immobilized or captured ligands. Buffer reference responses were then averaged from multiple injections. The averaged buffer reference responses were then subtracted from analyte binding responses, and the final double-referenced data were analyzed with Biacore T200 Evaluation software (2.0, GE), globally fitting data to derive kinetic parameters. All sensorgrams were fitted using a simple one-to-one binding model.

- binding result [1]: no binding
- binding result [2]: no binding
- binding result [3]: no binding
- binding result [4]: no binding
- binding result [5]: no binding
- binding result [6]: no binding
B1: TSC 1005 (other)
chain: EPKSSDKTHTCPPCPAPPVAAPSVFLFPPKPKDTLMISRTPEVTCVVVDVSHEDPEVKFNWYVDGVEVHNAKTKPREEQYNSTYRVVSVLTVLHQDWLNGKEYKCAVSNKALPAPIEKTISKAKGQPREPQVYTLPPSRDELTKNQVSLTCLVKGFYPSDIAVEWESNGQPENNYKTTPPVLDSDGSFFLYSKLTVDKSRWQQGNVFSCSVMHEALHNHYTQKSLSLSPG
notes: IgG1 Fc with E233P, L234V, L235A, deletion of G236, G237A, K322A (EU); also called PVAdel TSC01005

- EC50 [7]: 1.5 nM
- Max MFI [7]: 8620 MFI
- EC50 [8]: 0.27 nM
- Max MFI [8]: 4540 MFI
- Kd [9]: 0.4 nM
- koff [9]: 0.00014 s⁻¹
- kon [9]: 380000 M⁻¹ s⁻¹
B2: FXX01066 (bispecific antibody)
chain: EVQLVQSGAEVKKPGASVKVSCKASGYTFTSYWMNWVRQAPGQGLEWMGNIYPSGGSTNYAQKFQGRVTMTVDTSTSTVYMELSSLRSEDTAVYYCASFSDGYYAYAMDYWGQGTLVTVSSGGGGSGGGGSGGGGSGGGGSEIVMTQSPATLSLSPGERATLSCRASQSVSSYLNWYQQKPGQAPRLLIYYASRRHTGIPARFSGSGSGTDFTLTISSLQPEDFAVYYCQQGYNLPYTFGQGTKVEIKEPKSSDKTHTCPPCPAPPAAAPSVFLFPPKPKDTLMISRTPEVTCVVVDVSHEDPEVKFNWYVDGVEVHNAKTKPREEQYNSTYRVVSVLTVLHQDWLNGKEYKCAVSNKALPAPIEKTISKAKGQPREPQVYTLPPSRDELTKNQVSLTCLVKGFYPSDIAVEWESNGQPENNYKTTPPVLDSDGSFFLYSKLTVDKSRWQQGNVFSCSVMHEALHNHYTQKSLSLSPGGGGSPSSYVLTQPPSVSVAPGQTARITCGGNNIGSKSVNWFQQKPGQAPVLVVYDDSGRPSGIPERFSGSTSGNTATLTISRVEAGDEADYYCQVWDSSSDHVVFGGGTKLTVLGGGGSGGGGSGGGGSGGGGSQVQLVESGGGVVQPGRSLRLSCAASGFTLSYYGMHWVRQAPGKGLEWVAAISHDGSDKYYADSVKGRFTISRDNSKNTLYLQMNSLRAEDTAVYYCSNDQFDPWGQGTLVTVSSR
notes: ADAPTIR scFv-Fc-scFv, anti-4-1BB (VH-VL) N-terminal, anti-OX40 C-terminal, PAA (del) Fc; also called FX01066
